Assay results from publication PMC5505701, “Somatostatin binds to the human amyloid β peptide and favors the formation of distinct oligomers” (eLife, 2017).

Legend:
[1] = tested on: oligomeric versus monomeric Aβ1-42 (Aβ1-42-biotin bait); test: Affinity capture interactome Experiment III (oAβ1-42-biotin vs mAβ1-42-biotin); conditions: for Experiment III oAβ1-42-B/mAβ1-42-B Ratio: oligomeric versus monomeric bait, human frontal lobe digitonin extract, TMT, pH 8.0, 4°C overnight
[2] = tested on: oligomeric Aβ1-42 (oAβ1-42-biotin bait); test: Affinity capture interactome Experiment II (C-terminally tethered oAβ1-42-biotin vs biotin); conditions: for Experiment II oAβ1-42-B/B Ratio: enrichment relative to biotin-only negative control, human frontal lobe digitonin extract, TMT, pH 8.0, 4°C overnight

Row | Molecule | Experiment III oAβ1-42-B/mAβ1-42-B Ratio [1] | Experiment II oAβ1-42-B/B Ratio [2] | other results
1 | ATP synthase subunit alpha, mitochondrial: human brain protein (protein, UniProt P25705 44-553, looked up) ATP synthase F(1) complex …: QKTGTAEMSSILEERILGADTSVDLEETGRVLSIGDGIARVHGLRNVQAEEMVEFSSGLKGMSLNLEPDNVGVVVFGNDKLIKEGDIVKRTGAIVDVPVGEELLGRVVDALGNAIDGKGPIGSKTRRRVGLKAPGIIPRISVREPMQTGIKAVDSLVPIGRGQRELIIGDRQTGKTSIAIDTIINQKRFNDGSDEKKKLYCIYVAIGQKRSTVAQLVKRLTDADAMKYTIVVSATASDAAPLQYLAPYSGCSMGEYFRDNGKHALIIYDDLSKQAVAYRQMSLLLRRPPGREAYPGDVFYLHSRLLERAAKMNDAFGGGSLTALPVIETQAGDVSAYIPTNVISITDGQIFLETELFYKGIRPAINVGLSVSRVGSAAQTRAMKQVAGTMKLELAQYREVAAFAQFGSDLDAATQQLLSRGVRLTELLKQGQYSPMAIEEQVAVIYAGVRGYLDKLEPSKITKFENAFLSHVVSQHQALLGTIRADGKISEQSDAKLKEIVTNFLAGFEA | 4.88 | 2.16 | –
2 | Tubulin beta-3 chain: human brain protein (protein, UniProt Q13509 1-450, looked up) Tubulin beta-3 chain: MREIVHIQAGQCGNQIGAKFWEVISDEHGIDPSGNYVGDSDLQLERISVYYNEASSHKYVPRAILVDLEPGTMDSVRSGAFGHLFRPDNFIFGQSGAGNNWAKGHYTEGAELVDSVLDVVRKECENCDCLQGFQLTHSLGGGTGSGMGTLLISKVREEYPDRIMNTFSVVPSPKVSDTVVEPYNATLSIHQLVENTDETYCIDNEALYDICFRTLKLATPTYGDLNHLVSATMSGVTTSLRFPGQLNADLRKLAVNMVPFPRLHFFMPGFAPLTARGSQQYRALTVPELTQQMFDAKNMMAACDPRHGRYLTVATVFRGRMSMKEVDEQMLAIQSKNSSYFVEWIPNNVKVAVCDIPPRGLKMSSTFIGNSTAIQELFKRISEQFTAMFRRKAFLHWYTGEGMDEMEFTEAESNMNDLVSEYQQYQDATAEEEGEMYEDDEEESEAQGPK | 2.04 | 1.18 | –
3 | Endophilin-A1: human brain protein (protein, UniProt Q99962 1-352, looked up) Endophilin-A1: MSVAGLKKQFHKATQKVSEKVGGAEGTKLDDDFKEMERKVDVTSRAVMEIMTKTIEYLQPNPASRAKLSMINTMSKIRGQEKGPGYPQAEALLAEAMLKFGRELGDDCNFGPALGEVGEAMRELSEVKDSLDIEVKQNFIDPLQNLHDKDLREIQHHLKKLEGRRLDFDYKKKRQGKIPDEELRQALEKFDESKEIAESSMFNLLEMDIEQVSQLSALVQAQLEYHKQAVQILQQVTVRLEERIRQASSQPRREYQPKPRMSLEFPTGDSTQPNGGLSHTGTPKPSGVQMDQPCCRALYDFEPENEGELGFKEGDIITLTNQIDENWYEGMLHGHSGFFPINYVEILVALPH | 1.07 | 1.28 | –
4 | Heat shock protein, 60 kDa, mitochondrial: human brain protein (protein, UniProt P10809 27-573, looked up) 60 kDa heat shock protein, …: AKDVKFGADARALMLQGVDLLADAVAVTMGPKGRTVIIEQSWGSPKVTKDGVTVAKSIDLKDKYKNIGAKLVQDVANNTNEEAGDGTTTATVLARSIAKEGFEKISKGANPVEIRRGVMLAVDAVIAELKKQSKPVTTPEEIAQVATISANGDKEIGNIISDAMKKVGRKGVITVKDGKTLNDELEIIEGMKFDRGYISPYFINTSKGQKCEFQDAYVLLSEKKISSIQSIVPALEIANAHRKPLVIIAEDVDGEALSTLVLNRLKVGLQVVAVKAPGFGDNRKNQLKDMAIATGGAVFGEEGLTLNLEDVQPHDLGKVGEVIVTKDDAMLLKGKGDKAQIEKRIQEIIEQLDVTTSEYEKEKLNERLAKLSDGVAVLKVGGTSDVEVNEKKDRVTDALNATRAAVEEGIVLGGGCALLRCIPALDSLTPANEDQKIGIEIIKRTLKIPAMTIAKNAGVEGSLIVEKIMQSSSEVGYDAMAGDFVNMVEKGIIDPTKVVRTALLDAAGVASLLTTAEVVVTEIPKEEKDPGMGAMGGMGGGMGGGMF | 4.21 | 2.27 | –
5 | Peroxiredoxin-5, mitochondrial: human brain protein (protein, UniProt P30044 53-214, looked up) Peroxiredoxin-5, mitochondrial: MAPIKVGDAIPAVEVFEGEPGNKVNLAELFKGKKGVLFGVPGAFTPGCSKTHLPGFVEQAEALKAKGVQVVACLSVNDAFVTGEWGRAHKAEGKVRLLADPTGAFGKETDLLLDDSLVSIFGNRRLKRFSMVVQDGIVKALNVEPDGTGLTCSLAPNIISQL | 5.90 | 2.15 | –
6 | Acetyl-CoA acetyltransferase, mitochondrial: human brain protein (protein, UniProt P24752 34-427, looked up) Acetyl-CoA acetyltransferase, …: VSKPTLKEVVIVSATRTPIGSFLGSLSLLPATKLGSIAIQGAIEKAGIPKEEVKEAYMGNVLQGGEGQAPTRQAVLGAGLPISTPCTTINKVCASGMKAIMMASQSLMCGHQDVMVAGGMESMSNVPYVMNRGSTPYGGVKLEDLIVKDGLTDVYNKIHMGSCAENTAKKLNIARNEQDAYAINSYTRSKAAWEAGKFGNEVIPVTVTVKGQPDVVVKEDEEYKRVDFSKVPKLKTVFQKENGTVTAANASTLNDGAAALVLMTADAAKRLNVTPLARIVAFADAAVEPIDFPIAPVYAASMVLKDVGLKKEDIAMWEVNEAFSLVVLANIKMLEIDPQKVNINGGAVSLGHPIGMSGARIVGHLTHALKQGEYGLASICNGGGGASAMLIQKL | 2.45 | 2.64 | –
7 | 14-3-3 protein epsilon: human brain protein (protein, UniProt P62258 1-255, looked up) 14-3-3 protein epsilon: MDDREDLVYQAKLAEQAERYDEMVESMKKVAGMDVELTVEERNLLSVAYKNVIGARRASWRIISSIEQKEENKGGEDKLKMIREYRQMVETELKLICCDILDVLDKHLIPAANTGESKVFYYKMKGDYHRYLAEFATGNDRKEAAENSLVAYKAASDIAMTELPPTHPIRLGLALNFSVFYYEILNSPDRACRLAKAAFDDAIAELDTLSEESYKDSTLIMQLLRDNLTLWTSDMQGDGEEQNKEALQDVEDENQ | – | – | 128/131 ([1]; Experiment III, oAbeta 1-42 (TMT 128) versus mAbeta 1-42 (TMT 131), replicate channel 128): 1.113; 130/131 ([1]; Experiment III, oAbeta 1-42 (TMT 130) versus mAbeta 1-42 (TMT 131), replicate channel 130): 0.949; 126/131 ([2]; Experiment II, oAbeta 1-42-biotin (TMT 126) versus biotin (TMT 131), replicate channel 126): 1.157; 128/131 ([2]; Experiment II, oAbeta 1-42-biotin (TMT 128) versus biotin (TMT 131), replicate channel 128): 1.411; 130/131 ([2]; Experiment II, oAbeta 1-42-biotin (TMT 130) versus biotin (TMT 131), replicate channel 130): 1.195
8 | Cofilin-2: human brain protein (protein, UniProt Q9Y281 2-166, looked up) Cofilin-2: ASGVTVNDEVIKVFNDMKVRKSSTQEEIKKRKKAVLFCLSDDKRQIIVEEAKQILVGDIGDTVEDPYTSFVKLLPLNDCRYALYDATYETKESKKEDLVFIFWAPESAPLKSKMIYASSKDAIKKKFTGIKHEWQVNGLDDIKDRSTLGEKLGGNVVVSLEGKPL | 6.93 | 1.81 | –
